Publication PMC6689050, “A switch element in the autophagy E2 Atg3 mediates allosteric regulation across the lipidation cascade” (Nature Communications, 2019)
Changes are numbered by the printed parent chain. Names may count otherwise. Each block holds one binder with its values, some of them ahead of it.

Columns and labels:
[1] = target: T1, Atg12–Atg5 conjugate (His-Atg12 100–186 conjugated to Atg5 1–284), minimal yeast autophagy E3 (S. cerevisiae, UniProt P38316 100-186; Q12380 1-284, conjugated to Atg5 (Atg12–Atg5 conjugate) | conjugated to Atg12 (Atg12–Atg5 conjugate)); test: SEC; purified His-Atg12–Atg5 combined with Atg16 1–46 in a 1:2 molar ratio, Superdex-200; peak fractions of the complex harvested; conditions: both partners purified
T1 construct: Atg12, S. cerevisiae, residues 100–186; Atg5, S. cerevisiae, residues 1–284, untagged; Covalent conjugate formed in E. coli by co-expressed Atg7 and Atg10; No removal of the His tag is told; also called His-Atg12–Atg5; minimal yeast E3; source: E. coli BL21, co-expressed with Atg7 1–630 and Atg10; purified (Ni-NTA, cation exchange); not shown: His6, N-terminal, kept
T1 sequence (looked up) 1: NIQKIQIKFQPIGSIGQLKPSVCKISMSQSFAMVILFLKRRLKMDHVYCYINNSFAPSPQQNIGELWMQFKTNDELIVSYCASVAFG
T1 sequence (looked up) 2: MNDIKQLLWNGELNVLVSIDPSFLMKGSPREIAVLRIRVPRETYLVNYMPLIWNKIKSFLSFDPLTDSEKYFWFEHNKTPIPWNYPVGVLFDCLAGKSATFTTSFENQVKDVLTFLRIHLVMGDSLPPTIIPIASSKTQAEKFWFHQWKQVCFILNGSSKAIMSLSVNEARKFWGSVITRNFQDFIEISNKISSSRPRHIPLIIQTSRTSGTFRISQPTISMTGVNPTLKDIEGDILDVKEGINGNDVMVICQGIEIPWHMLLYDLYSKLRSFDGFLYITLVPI

[2] = target: T2, Atg3^∆FR (yeast Atg3 lacking the flexible region) (S. cerevisiae, UniProt P40344 1-310, ∆FR (FR, residues 85–159)); test: NMR
T2 sequence: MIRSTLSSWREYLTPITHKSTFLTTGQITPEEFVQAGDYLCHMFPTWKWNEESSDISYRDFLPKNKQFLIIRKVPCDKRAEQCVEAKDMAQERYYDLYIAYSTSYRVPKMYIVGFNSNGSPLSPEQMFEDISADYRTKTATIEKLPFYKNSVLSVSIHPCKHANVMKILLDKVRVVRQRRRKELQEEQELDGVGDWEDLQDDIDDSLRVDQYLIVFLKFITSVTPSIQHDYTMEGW

[3] = target: T1, Atg12–Atg5 conjugate (His-Atg12 100–186 …); test: NMR titration; 0.1 mM 15N-labeled Atg3^FR 86–159 titrated with 0–150 µM unlabeled Atg12–Atg5; [15N,1H] TROSY; 25 °C, 20 mM MES pH 6.5, 100 mM NaCl, 10% D2O; conditions: both partners purified
[4] = target: T2, Atg3^∆FR (yeast Atg3 lacking the …); test: NMR; average over E123IR residues
[5] = target: T3, Atg3^FR (residues 86–159), the intrinsically disordered flexible region of yeast Atg3 (S. cerevisiae, UniProt P40344 86-159); test: NMR; average over E123IR residues; Atg12–Atg5 with Atg16
T3 chain: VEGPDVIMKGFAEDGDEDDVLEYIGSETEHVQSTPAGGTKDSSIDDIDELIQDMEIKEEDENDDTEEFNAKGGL

B1: Atg16 (residues 1–46) (domain or fragment, S. cerevisiae, UniProt Q03818 1-46, looked up)
chain: MGNFIITERKKAKEERSNPQTDSMDDLLIRRLTDRNDKEAHLNELF
notes: Atg16, S. cerevisiae, residues 1–46; also called Atg16 1–46; source: purified
binding result [1]: binds

B4: Atg12–Atg5 conjugate (His-Atg12 100–186 conjugated to Atg5 1–284), minimal yeast autophagy E3 (complex)
chain 1: T1 sequence (looked up) 1
chain 2: T1 sequence (looked up) 2
modifications: conjugated to Atg5 (Atg12–Atg5 conjugate) | conjugated to Atg12 (Atg12–Atg5 conjugate)
Kd [5]: 69 µM

Second part, the binder after the results:

Kd [2]: 994 µM
B2: Atg3^FR 86–159 mutant I132D, L135D, I136D (printed elsewhere as I136R) (domain or fragment)
chain: T3 chain with I47D, L50D, I51D

binding result [3]: binds
Kd [4]: 238 µM
B3: Atg3^FR (residues 86–159), the intrinsically disordered flexible region of yeast Atg3 (domain or fragment, S. cerevisiae, UniProt P40344 86-159, looked up)
chain: T3 chain
notes: Atg3 (autophagy E2), S. cerevisiae, flexible region, residues 86–159; 15N-labelled (or 13C,15N-labelled) for NMR; The introduction gives the FR as residues 85–159, the construct is 86–159; also called Atg3^FR 86–159; holds the Atg3^E123IR element; source: purified
